Results: patent US20240294914A1, “COMPOSITIONS AND METHODS FOR TREATING HEPATITIS B VIRUS INFECTION” (priority 2021, published 2024)
Strand notation (5' to 3'): a small letter for the sugar, then the base; units joined by * are phosphorothioate-linked, units joined directly phosphodiester-linked; [ ] holds rarer units or linkages, { } end groups; capitals alone tell only the bases. m = 2'-O-methyl; r = 2'-OH (RNA)

B1: cas12b-122b: guide RNA SEQ ID NO: 391 (nucleic acid)
guide: GTTCTGTCTTTTGGTCAGGACAACCGTCTAGCTATAAGTGCTGCAGGGTGTGAGAAACTCCTATTGCTGGACGATGTCTCTTACGAGGCATTAGCACCACGCACGCGCTGATGGCCC
modifications: sugars from the 5' end m3 r114, linkages s3 o113 (s phosphorothioate, o phosphodiester), T or U not given here
B2: G-772: guide RNA SEQ ID NO: 5501 (nucleic acid)
guide: UGGCGAUUGGUGGAGGCAGGGUUUUAGAGCUAGAAAUAGCAAGUUAAAAUAAGGCUAGUCCGUUAUCAACUUGAAAAAGUGGCACCGAGUCGGUGCUUUU
modifications: sugars from the 5' end m3 r93 m3 r1, linkages s3 o93 s3 (s phosphorothioate, o phosphodiester), T or U not given here
B3: G-200: guide RNA SEQ ID NO: 5498 (nucleic acid)
guide: GUGAAAAAGUUGCAUGGUGCGUUUUAGAGCUAGAAAUAGCAAGUUAAAAUAAGGCUAGUCCGUUAUCAACUUGAAAAAGUGGCACCGAGUCGGUGCUUUU
modifications: sugars from the 5' end m3 r93 m3 r1, linkages s3 o93 s3 (s phosphorothioate, o phosphodiester), T or U not given here
B4: cas12b-17: guide RNA SEQ ID NO: 382 (nucleic acid)
guide: mG*mU*mU*rCrUrGrUrCrUrUrUrUrGrGrUrCrArGrGrArCrArArCrCrGrUrCrUrArGrCrUrArUrArArGrUrGrCrUrGrCrArGrGrGrUrGrUrGrArGrArArArCrUrCrCrUrArUrUrGrCrUrGrGrArCrGrArUrGrUrCrUrCrUrUrArCrGrArGrGrCrArUrUrArGrCrArCrGrGrGrGrCrCrArArGrUrCrUrGrUrArCrArGrCrA
B5: cas12b-147: guide RNA SEQ ID NO: 386 (nucleic acid)
guide: mG*mU*mU*rCrUrGrUrCrUrUrUrUrGrGrUrCrArGrGrArCrArArCrCrGrUrCrUrArGrCrUrArUrArArGrUrGrCrUrGrCrArGrGrGrUrGrUrGrArGrArArArCrUrCrCrUrArUrUrGrCrUrGrGrArCrGrArUrGrUrCrUrCrUrUrArCrGrArGrGrCrArUrUrArGrCrArCrGrArGrGrArCrArArArCrGrGrGrCrArArCrArUrA
B6: cas12b-42: guide RNA SEQ ID NO: 384 (nucleic acid)
guide: mG*mU*mU*rCrUrGrUrCrUrUrUrUrGrGrUrCrArGrGrArCrArArCrCrGrUrCrUrArGrCrUrArUrArArGrUrGrCrUrGrCrArGrGrGrUrGrUrGrArGrArArArCrUrCrCrUrArUrUrGrCrUrGrGrArCrGrArUrGrUrCrUrCrUrUrArCrGrArGrGrCrArUrUrArGrCrArCrGrGrArGrCrUrArCrUrGrUrGrGrArGrUrUrArCrU
B7: cas12b-4: guide RNA SEQ ID NO: 379 (nucleic acid)
guide: mG*mU*mU*rCrUrGrUrCrUrUrUrUrGrGrUrCrArGrGrArCrArArCrCrGrUrCrUrArGrCrUrArUrArArGrUrGrCrUrGrCrArGrGrGrUrGrUrGrArGrArArArCrUrCrCrUrArUrUrGrCrUrGrGrArCrGrArUrGrUrCrUrCrUrUrArCrGrArGrGrCrArUrUrArGrCrArCrArCrArArGrArArUrCrCrUrCrArCrArArUrArCrC
B8: cas12b-124: guide RNA SEQ ID NO: 389 (nucleic acid)
guide: mG*mU*mU*rCrUrGrUrCrUrUrUrUrGrGrUrCrArGrGrArCrArArCrCrGrUrCrUrArGrCrUrArUrArArGrUrGrCrUrGrCrArGrGrGrUrGrUrGrArGrArArArCrUrCrCrUrArUrUrGrCrUrGrGrArCrGrArUrGrUrCrUrCrUrUrArCrGrArGrGrCrArUrUrArGrCrArCrCrCrGrGrGrCrArArCrGrGrGrGrUrArArArGrGrU
B9: G-553: guide RNA SEQ ID NO: 5506 (nucleic acid)
guide: GGGCAACGGGGUAAAGGUUCGUUUUAGAGCUAGAAAUAGCAAGUUAAAAUAAGGCUAGUCCGUUAUCAACUUGAAAAAGUGGCACCGAGUCGGUGCUUUU
modifications: sugars from the 5' end m3 r93 m3 r1, linkages s3 o93 s3 (s phosphorothioate, o phosphodiester), T or U not given here
B10: G-159: guide RNA SEQ ID NO: 5488 (nucleic acid)
guide: GCAAACACUUGGCACAGACCGUUUUAGAGCUAGAAAUAGCAAGUUAAAAUAAGGCUAGUCCGUUAUCAACUUGAAAAAGUGGCACCGAGUCGGUGCUUUU
modifications: sugars from the 5' end m3 r93 m3 r1, linkages s3 o93 s3 (s phosphorothioate, o phosphodiester), T or U not given here
B11: cas12b-100: guide RNA SEQ ID NO: 385 (nucleic acid)
guide: mG*mU*mU*rCrUrGrUrCrUrUrUrUrGrGrUrCrArGrGrArCrArArCrCrGrUrCrUrArGrCrUrArUrArArGrUrGrCrUrGrCrArGrGrGrUrGrUrGrArGrArArArCrUrCrCrUrArUrUrGrCrUrGrGrArCrGrArUrGrUrCrUrCrUrUrArCrGrArGrGrCrArUrUrArGrCrArCrUrUrCrUrUrCrUrArGrGrGrGrArCrCrUrGrCrCrU
B12: G-845: guide RNA SEQ ID NO: 5508 (nucleic acid)
guide: UUUGAAGUAUGCCUCAAGGUGUUUUAGAGCUAGAAAUAGCAAGUUAAAAUAAGGCUAGUCCGUUAUCAACUUGAAAAAGUGGCACCGAGUCGGUGCUUUU
modifications: sugars from the 5' end m3 r93 m3 r1, linkages s3 o93 s3 (s phosphorothioate, o phosphodiester), T or U not given here
B13: cas12b-30: guide RNA SEQ ID NO: 383 (nucleic acid)
guide: mG*mU*mU*rCrUrGrUrCrUrUrUrUrGrGrUrCrArGrGrArCrArArCrCrGrUrCrUrArGrCrUrArUrArArGrUrGrCrUrGrCrArGrGrGrUrGrUrGrArGrArArArCrUrCrCrUrArUrUrGrCrUrGrGrArCrGrArUrGrUrCrUrCrUrUrArCrGrArGrGrCrArUrUrArGrCrArCrGrCrUrGrArCrGrCrArArCrCrCrCrCrArCrUrGrG
B14: G-474: guide RNA SEQ ID NO: 5509 (nucleic acid)
guide: GAUUAAAGGUCUUUGUACUAGUUUUAGAGCUAGAAAUAGCAAGUUAAAAUAAGGCUAGUCCGUUAUCAACUUGAAAAAGUGGCACCGAGUCGGUGCUUUU
modifications: sugars from the 5' end m3 r93 m3 r1, linkages s3 o93 s3 (s phosphorothioate, o phosphodiester), T or U not given here
B15: cas12b-35: guide RNA SEQ ID NO: 388 (nucleic acid)
guide: mG*mU*mU*rCrUrGrUrCrUrUrUrUrGrGrUrCrArGrGrArCrArArCrCrGrUrCrUrArGrCrUrArUrArArGrUrGrCrUrGrCrArGrGrGrUrGrUrGrArGrArArArCrUrCrCrUrArUrUrGrCrUrGrGrArCrGrArUrGrUrCrUrCrUrUrArCrGrArGrGrCrArUrUrArGrCrArCrCrCrCrArArGrGrUrCrUrUrArCrArUrArArGrArG
B16: cas12b-154: guide RNA SEQ ID NO: 387 (nucleic acid)
guide: mG*mU*mU*rCrUrGrUrCrUrUrUrUrGrGrUrCrArGrGrArCrArArCrCrGrUrCrUrArGrCrUrArUrArArGrUrGrCrUrGrCrArGrGrGrUrGrUrGrArGrArArArCrUrCrCrUrArUrUrGrCrUrGrGrArCrGrArUrGrUrCrUrCrUrUrArCrGrArGrGrCrArUrUrArGrCrArCrUrUrGrUrCrArArCrArArGrArArArArArCrCrCrC
B17: G-251: guide RNA SEQ ID NO: 5504 (nucleic acid)
guide: CAGGUAUUGUUUACACAGAAGUUUUAGAGCUAGAAAUAGCAAGUUAAAAUAAGGCUAGUCCGUUAUCAACUUGAAAAAGUGGCACCGAGUCGGUGCUUUU
modifications: sugars from the 5' end m3 r93 m3 r1, linkages s3 o93 s3 (s phosphorothioate, o phosphodiester), T or U not given here
B18: cas12b-127: guide RNA SEQ ID NO: 390 (nucleic acid)
guide: mG*mU*mU*rCrUrGrUrCrUrUrUrUrGrGrUrCrArGrGrArCrArArCrCrGrUrCrUrArGrCrUrArUrArArGrUrGrCrUrGrCrArGrGrGrUrGrUrGrArGrArArArCrUrCrCrUrArUrUrGrCrUrGrGrArCrGrArUrGrUrCrUrCrUrUrArCrGrArGrGrCrArUrUrArGrCrArCrArCrArCrArGrArArArGrGrCrCrUrUrGrUrArArG

Test system: HBV genome in HEK293T cells transduced with a lentiviral vector
Test: Base editing efficiency in Hek293-lentiHBV system (PCR amplicons sequenced on MiSeq)
Assay type: cell-based, Hepatitis B virus
Parameters: Editing Efficiency 2 (%): concentration or dose not given beside the values
Settings: for Average Editing Efficiency (%): average of 3, base editor Cas12b-ABE; for Average Editing Efficiency (%) / Editing Efficiency 1 (%) / Editing Efficiency 2 (%) / Editing Efficiency 3 (%): plasmid transfection, four days; for Editing Efficiency 1 (%): replicate 1, base editor Cas12b-ABE; for Editing Efficiency 2 (%): replicate 2, base editor Cas12b-ABE; for Editing Efficiency 3 (%): replicate 3, base editor Cas12b-ABE

Molecule	Average Editing Efficiency (%)	Editing Efficiency 1 (%)	Editing Efficiency 2 (%)	Editing Efficiency 3 (%)	% Editing average (base editor Abe7.10) [%]	% Editing average (base editor ABE8.8-m) [%]	% Editing average (base editor VRQR-ABE) [%]
B1	5.51	8.22	3.91	4.39			
B2					66		
B3						59	
B4	35.07	26.42	34.50	44.29			
B5	10.83	13.02	4.44	15.03			
B6	28.99	29.48	23.94	33.54			
B7	20.00	14.70	26.37	18.93			
B8	17.47	29.50	11.78	11.15			
B9						64	
B10					51		
B11	5.18	7.97	4.21	3.35			
B12					70		
B13	0.02	0.02	0.02	0.01			
B14							74
B15	0.35	0.31	0.04	0.70			
B16	27.74	16.12	30.06	37.02			
B17					77		
B18	42.25	50.16	37.40	39.21			
